Entries after “also recorded” stand apart in the source; their conditions may differ.
Tests used:
[1] = target: tumor-specific form of MUC1 (tMUC) (Homo sapiens, UniProt P15941); conditions: cited from earlier work
[2] = tested on: orthotopic tumors (PyVMT, PyVMT.MUC1, HCC-70, and AU565); test: IVIS imaging of TAB-004-ICG in Nu-J nude mice with orthotopic tumors; type: in vivo, mouse; conditions: ICG-conjugated
Description: FIGS. 18A-18D are a series of fluorescent images showing specific homimg of the ICG-tagged TAB-004 antibody to tumor sites in mice bearing PyV MT tumors (MUC1 null negative control; FIG. 18A), PyV MT.MUC1 tumors (MMT, MUC1+ positive control; FIG. 18B), HCC70 cell triple negative breast cancer (TNBC) tumors (MUC1+; FIG. 18C), and AU565 TNBC cell tumors (MUC1+; […]) imaged 4 hours post-injection with antibody. Imaging was repeated as tumors progressed (indicated as days post tumor challenge). […] Each of FIGS. 18A-18D is accompanied by a graph showing the growth of the tumor from 7-21 days (FIGS. 18A and 18B) or from 7 to 54 days (FIGS. 18C and 18D).
To test if TAB-004 can specifically reach TNBC tumors in vivo in mice, orthotopic tumors (PyVMT, PyVMT.MUC1, HCC-70, and AU565) were produced in the mammary fat pad of mice. Nu-J nude mice (8-week old) were injected with 10×10^6 cells in the lower right inquinal area of the mammary fat pad. When tumors were palpable, mice were injected retroorbitally with 12.5 μgs of TAB-004-directly conjugated to Indocyanine green (ICG) and imaged 4 hours post antibody injection. […] A negative breast cancer cell line that is null for human MUC1 was used as control to test specificity (PyVMT; see FIG. 18A).

[3] = tested on: human pancreas and breast tumor tissue; test: immunohistochemical staining of human tumor and normal tissue; type: binding; conditions: IHC
Text: FIGS. 1A and 1B are a series of photomicrographs depicting specific binding of an exemplary antibody of the presently disclosed subject matter to human and mouse pancreatic tumors. The dark staining in the panels is indicative of positive binding of the exemplary antibody to cells present in the sample. […] FIG. 1B is a series of photomicrographs depicting the binding of an exemplary antibody of the presently disclosed subject matter to spontaneous tumors present in the pancreas of 6, 16, 26, and 34 week old transgenic mice that carried a human MUC1 transgene and a K-ras^G12D mutation.
FIGS. 2A and 2B are a series of photomicrographs depicting specific binding of an exemplary antibody of the presently disclosed subject matter (i.e., a horse radish peroxidase (HRP)-labeled TAB-004 anti-MUC1 monoclonal antibody) to human breast tumor tissue. […]
Epitope screening determined that the TAB-004 monoclonal antibody (mAb) described herein bound to an epitope present within SEQ ID NO: 3. […]

CTCs = test: […] measurement of MUC1-expressing CTCs; type: cell-based, human; conditions: 7.5 ml blood spiked with PANC1 cells
Description: Both breast and pancreatic primary and metastatatic tumors express high levels of tumor-associated MUC1 recognized by the TAB-004 antibody of the presently disclosed subject matter. Therefore, CTCs in these patients should be recognized by the TAB-004 antibody. In preliminary experiments, levels of MUC1 were assessed using the TAB-004 antibody. First, the ability to use the Veridex […]® system to measure MUC1-expressing CTCs using 7.5 ml blood samples (analogous to human samples) spiked with PANC1 cells, which are a human pancreatic cancer cell line was tested. Approximately 90% of the CTCs (EpCAM+ cells) expressed MUC1. […] Therefore, using the TAB-004 antibody appears to accurately detect micrometastases in pancreatic and breast cancer patients.

tumor-specific form of MUC1 (tMUC), sequence (P15941 24-1255): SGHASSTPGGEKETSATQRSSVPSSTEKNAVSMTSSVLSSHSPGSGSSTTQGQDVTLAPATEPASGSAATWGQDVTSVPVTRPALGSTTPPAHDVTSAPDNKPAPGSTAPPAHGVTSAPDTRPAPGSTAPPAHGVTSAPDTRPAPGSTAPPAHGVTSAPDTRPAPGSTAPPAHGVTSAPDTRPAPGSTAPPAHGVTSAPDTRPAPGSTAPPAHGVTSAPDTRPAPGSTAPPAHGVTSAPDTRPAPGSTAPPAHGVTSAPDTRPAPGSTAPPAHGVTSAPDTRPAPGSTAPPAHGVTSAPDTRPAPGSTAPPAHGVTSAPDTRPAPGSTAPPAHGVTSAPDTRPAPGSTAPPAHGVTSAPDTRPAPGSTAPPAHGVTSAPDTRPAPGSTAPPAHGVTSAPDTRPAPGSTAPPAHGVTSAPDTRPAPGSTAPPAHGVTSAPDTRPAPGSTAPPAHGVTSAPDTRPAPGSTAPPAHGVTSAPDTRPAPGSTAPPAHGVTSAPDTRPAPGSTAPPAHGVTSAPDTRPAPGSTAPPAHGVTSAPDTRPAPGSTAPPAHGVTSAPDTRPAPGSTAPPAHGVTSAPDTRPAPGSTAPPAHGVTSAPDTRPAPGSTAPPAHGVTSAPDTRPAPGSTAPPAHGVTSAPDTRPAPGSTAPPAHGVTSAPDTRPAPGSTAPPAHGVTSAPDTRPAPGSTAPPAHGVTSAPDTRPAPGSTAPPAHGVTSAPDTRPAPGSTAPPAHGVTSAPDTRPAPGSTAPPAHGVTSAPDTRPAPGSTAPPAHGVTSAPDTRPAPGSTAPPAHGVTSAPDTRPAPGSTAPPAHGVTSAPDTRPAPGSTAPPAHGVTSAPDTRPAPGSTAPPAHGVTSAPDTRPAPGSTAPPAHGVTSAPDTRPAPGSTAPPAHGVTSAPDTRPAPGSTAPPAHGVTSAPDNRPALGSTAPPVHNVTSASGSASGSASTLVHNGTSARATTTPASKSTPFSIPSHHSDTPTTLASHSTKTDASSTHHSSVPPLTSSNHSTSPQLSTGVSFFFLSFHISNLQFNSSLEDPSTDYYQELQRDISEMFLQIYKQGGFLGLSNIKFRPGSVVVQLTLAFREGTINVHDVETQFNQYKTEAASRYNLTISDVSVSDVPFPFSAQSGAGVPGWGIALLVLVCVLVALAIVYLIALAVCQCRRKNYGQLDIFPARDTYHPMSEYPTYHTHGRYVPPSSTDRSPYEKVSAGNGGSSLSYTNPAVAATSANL

B1: TAB-004: mAb of the IgG isotype produced by hybridoma ATCC PTA-11550; binds tumor-specific epitope of human MUC1 (antibody, V domains shown)
VH: EVQLQQSGGERATPGASVKMSCKTSGYTFTNYWMHWVKQRPGQGLEWIGYINPSSGYTQYNQKFKDKATLTADKSSSTAYIQLSSLTSEDSAVYYCSTYYGDYLFPYWGQGTLVTVSA
VL: DVLMTQTPLSLPVSLGDQASISCRSSQDIVYGNGNTYLEWYLQKPGQSPKLLIYKVSNRFSGVPDRFSGSGSGTDFTLKISRVEAEDLGVYYCFQGSHVPYTFGGGTKLEIKR
binding affinity [1]: 3 ng/mL | binding to unrelated antigens [1]: does not bind unrelated antigens | Kd ([1]; read-out: binding affinity): 0.02 nM | earliest specific localization to tumor sites, human cell lines ([2]; HCC70 and AU565, days post tumor challenge): 21 days | earliest specific localization to tumor sites, PyVMT.MUC1 tumors ([2]; days post tumor challenge): 11 days | staining of normal tissue [3]: did not bind appreciably to normal pancreas or breast tissue; also recorded: did not bind to normal tissue | staining of tumor tissue [3]: reacted strongly with tumor tissue; also recorded: strongly stained | CTCs (EpCAM+ cells) expressing MUC1 (CTCs): Approximately 90%

— patent US12605469B2, “Tumor specific antibody conjugates and uses therefor” (The University of North Carolina at Charlotte, priority 2019, dated 2026)
